From the Human Domainome abundance scans (Beltran et al. 2025)
± gives the uncertainty stated by the source.

B1: RAS guanyl-releasing protein 1, residues 539 to 593; numbered along this chain, O95267 (parent)
chain: GFPHNFQETTYLKPTFCDNCAGFLWGVIKQGYRCKDCGMNCHKQCKDLVVFECKK

Variants of: B1
Experiment: abundance fitness (aPCA) (normalised: wild type 0, dead -1); higher = more abundant; growth selection in yeast, the domain comes from the species named
Settings: Homo sapiens

Compared with GFPHNFQETTYLKPTFCDNCAGFLWGVIKQGYRCKDCGMNCHDQCKDLVVFECKK [K43D], GFPHNFQETTYLKPTFCDNCAGFLWGVIKQGYRCKDCGMNCHNQCKDLVVFECKK [K43N] is lower in abundance fitness: 0.011 ± 0.093 for the first, -0.417 ± 0.18 for the second.

GFPHNFQETTYLKPTFCDNCAGFLWGVIKQGYRCKDCGMNCHMQCKDLVVFECKK [K43M] and GFPHNFQETTYLKPTFCDNCAGFLWGVIKQGYRCKDCGMNCHLQCKDLVVFECKK [K43L] are within error of each other in abundance fitness: -0.031 ± 0.093 for the first, -0.066 ± 0.089 for the second.

First: GFPHNFQETTYLKPTFCDNCAGFLWGVIKQGYRCKDCGMNCHIQCKDLVVFECKK [K43I]
Second: GFPHNFQETTYLKPTFCDNCAGFLWGVIKQGYRCKDCGMNCHWQCKDLVVFECKK [K43W]
The abundance fitness of the first is higher: 0.232 ± 0.1 for the first, -0.481 ± 0.16 for the second.

GFPHNFQETTYLKPTFCDNCAGFLWGVIKQGYRCKDCGMNCHEQCKDLVVFECKK [K43E] and GFPHNFQETTYLKPTFCDNCAGFLWGVIKQGYRCKDCGMNCHCQCKDLVVFECKK [K43C] are within error of each other in abundance fitness: -0.002 ± 0.068 for the first, -0.053 ± 0.066 for the second.

GFPHNFQETTYLKPTFCDNCAGFLWGVIKQGYRCKDCGMNCHSQCKDLVVFECKK [K43S] and GFPHNFQETTYLKPTFCDNCAGFLWGVIKQGYRCKDCGMNCHRQCKDLVVFECKK [K43R] are within error of each other in abundance fitness: -0.006 ± 0.061 for the first, -0.094 ± 0.083 for the second.

GFPHNFQETTYLKPTFCDNCAGFLWGVIKQGYRCKDCGMNCHTQCKDLVVFECKK [K43T] and GFPHNFQETTYLKPTFCDNCAGFLWGVIKQGYRCKDCGMNCHAQCKDLVVFECKK [K43A] are within error of each other in abundance fitness: -0.024 ± 0.1 for the first, -0.049 ± 0.081 for the second.

GFPHNFQETTYLKPTFCDNCAGFLWGVIKQGYRCKDCGMNCHPQCKDLVVFECKK [K43P] and GFPHNFQETTYLKPTFCDNCAGFLWGVIKQGYRCKDCGMNCHGQCKDLVVFECKK [K43G] are within error of each other in abundance fitness: -0.146 ± 0.09 for the first, -0.074 ± 0.052 for the second.

GFPHNFQETTYLKPTFCDNCAGFLWGVIKQGYRCKDCGMNCHFQCKDLVVFECKK [K43F] and GFPHNFQETTYLKPTFCDNCAGFLWGVIKQGYRCKDCGMNCHKKCKDLVVFECKK [Q44K] are within error of each other in abundance fitness: -0.24 ± 0.21 for the first, 0.043 ± 0.099 for the second.

Going from GFPHNFQETTYLKPTFCDNCAGFLWGVIKQGYRCKDCGMNCHKSCKDLVVFECKK [Q44S] to GFPHNFQETTYLKPTFCDNCAGFLWGVIKQGYRCKDCGMNCHKICKDLVVFECKK [Q44I], the abundance fitness falls from 0.149 ± 0.089 to -0.294 ± 0.28.

Going from GFPHNFQETTYLKPTFCDNCAGFLWGVIKQGYRCKDCGMNCHKPCKDLVVFECKK [Q44P] to GFPHNFQETTYLKPTFCDNCAGFLWGVIKQGYRCKDCGMNCHKECKDLVVFECKK [Q44E], the abundance fitness rises from -0.119 ± 0.079 to 0.131 ± 0.058.

GFPHNFQETTYLKPTFCDNCAGFLWGVIKQGYRCKDCGMNCHKLCKDLVVFECKK [Q44L] and GFPHNFQETTYLKPTFCDNCAGFLWGVIKQGYRCKDCGMNCHKWCKDLVVFECKK [Q44W] are within error of each other in abundance fitness: -0.057 ± 0.087 for the first, 0.003 ± 0.087 for the second.

GFPHNFQETTYLKPTFCDNCAGFLWGVIKQGYRCKDCGMNCHKFCKDLVVFECKK [Q44F] and GFPHNFQETTYLKPTFCDNCAGFLWGVIKQGYRCKDCGMNCHKRCKDLVVFECKK [Q44R] are within error of each other in abundance fitness: 0.072 ± 0.14 for the first, 0.047 ± 0.065 for the second.

GFPHNFQETTYLKPTFCDNCAGFLWGVIKQGYRCKDCGMNCHKYCKDLVVFECKK [Q44Y] and GFPHNFQETTYLKPTFCDNCAGFLWGVIKQGYRCKDCGMNCHKCCKDLVVFECKK [Q44C] are within error of each other in abundance fitness: 0.128 ± 0.052 for the first, 0.011 ± 0.12 for the second.

GFPHNFQETTYLKPTFCDNCAGFLWGVIKQGYRCKDCGMNCHKNCKDLVVFECKK [Q44N] and GFPHNFQETTYLKPTFCDNCAGFLWGVIKQGYRCKDCGMNCHKACKDLVVFECKK [Q44A] are within error of each other in abundance fitness: -0.238 ± 0.35 for the first, 0.011 ± 0.074 for the second.

First: GFPHNFQETTYLKPTFCDNCAGFLWGVIKQGYRCKDCGMNCHKHCKDLVVFECKK [Q44H]
Second: GFPHNFQETTYLKPTFCDNCAGFLWGVIKQGYRCKDCGMNCHKTCKDLVVFECKK [Q44T]
The abundance fitness of the first is higher: 0.083 ± 0.089 for the first, -0.226 ± 0.13 for the second.

GFPHNFQETTYLKPTFCDNCAGFLWGVIKQGYRCKDCGMNCHKMCKDLVVFECKK [Q44M] and GFPHNFQETTYLKPTFCDNCAGFLWGVIKQGYRCKDCGMNCHKVCKDLVVFECKK [Q44V] are within error of each other in abundance fitness: -0.001 ± 0.12 for the first, 0.079 ± 0.11 for the second.

GFPHNFQETTYLKPTFCDNCAGFLWGVIKQGYRCKDCGMNCHKDCKDLVVFECKK [Q44D] and GFPHNFQETTYLKPTFCDNCAGFLWGVIKQGYRCKDCGMNCHKQDKDLVVFECKK [C45D] are within error of each other in abundance fitness: 0.125 ± 0.12 for the first, -0.036 ± 0.13 for the second.

GFPHNFQETTYLKPTFCDNCAGFLWGVIKQGYRCKDCGMNCHKQIKDLVVFECKK [C45I] and GFPHNFQETTYLKPTFCDNCAGFLWGVIKQGYRCKDCGMNCHKQPKDLVVFECKK [C45P] are within error of each other in abundance fitness: -0.554 ± 0.21 for the first, -0.977 ± 0.22 for the second.

GFPHNFQETTYLKPTFCDNCAGFLWGVIKQGYRCKDCGMNCHKQLKDLVVFECKK [C45L] and GFPHNFQETTYLKPTFCDNCAGFLWGVIKQGYRCKDCGMNCHKQNKDLVVFECKK [C45N] are within error of each other in abundance fitness: -0.976 ± 0.13 for the first, -0.647 ± 0.34 for the second.

Going from GFPHNFQETTYLKPTFCDNCAGFLWGVIKQGYRCKDCGMNCHKQEKDLVVFECKK [C45E] to GFPHNFQETTYLKPTFCDNCAGFLWGVIKQGYRCKDCGMNCHKQFKDLVVFECKK [C45F], the abundance fitness falls from 0.068 ± 0.074 to -0.514 ± 0.056.

Going from GFPHNFQETTYLKPTFCDNCAGFLWGVIKQGYRCKDCGMNCHKQAKDLVVFECKK [C45A] to GFPHNFQETTYLKPTFCDNCAGFLWGVIKQGYRCKDCGMNCHKQGKDLVVFECKK [C45G], the abundance fitness rises from -0.527 ± 0.086 to -0.347 ± 0.063.

GFPHNFQETTYLKPTFCDNCAGFLWGVIKQGYRCKDCGMNCHKQKKDLVVFECKK [C45K] and GFPHNFQETTYLKPTFCDNCAGFLWGVIKQGYRCKDCGMNCHKQMKDLVVFECKK [C45M] are within error of each other in abundance fitness: -0.643 ± 0.25 for the first, -0.57 ± 0.18 for the second.

Going from GFPHNFQETTYLKPTFCDNCAGFLWGVIKQGYRCKDCGMNCHKQRKDLVVFECKK [C45R] to GFPHNFQETTYLKPTFCDNCAGFLWGVIKQGYRCKDCGMNCHKQHKDLVVFECKK [C45H], the abundance fitness rises from -0.773 ± 0.083 to -0.446 ± 0.13.

Compared with GFPHNFQETTYLKPTFCDNCAGFLWGVIKQGYRCKDCGMNCWKQCKDLVVFECKK [H42W], GFPHNFQETTYLKPTFCDNCAGFLWGVIKQGYRCKDCGMNCYKQCKDLVVFECKK [H42Y] is lower in abundance fitness: -0.286 ± 0.1 for the first, -0.892 ± 0.38 for the second.
